± gives the standard error. This sample holds only a part of the variants without activity.
B1: glmS ribozyme (parent)
chain: AUAAAAGCGCCAGAACUACAGAAAUGUAGUUGACGAGGAGGAGGUUUAUCGAAUUUUCGGCGGAUGCCUCCAAA

Experiments:
Conditions in all cases: with glucosamine-6-phosphate
glucosamine-6-phosphate [1] = variants of: B1; assay: self-cleavage kobs at 160 uM GlcN6P; higher = faster cleavage; RNA array
Procedure, shortened: (§1)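 Barcoded glmS ribozyme variants on sequenced MiSeq chips were transcribed in situ by E. coli RNA polymerase and tracked through a hybridised Cy3 probe at 37 °C. Glucosamine-6-phosphate (40 μM to 10 mM) in HEPES/KCl/Mg(OAc)2 buffer was flowed in, and tiles were imaged over ~14 h. Signals were normalised to baseline and to non-cleaving reference variants; per-tile medians were fit to one- or two-exponential decays to give kobs. kcat and KM came from weighted Michaelis–Menten fits across concentrations.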

glucosamine-6-phosphate [2] = variants of: B1; assay: self-cleavage kobs at 640 uM GlcN6P; higher = faster cleavage; RNA array
Procedure, shortened: as §1

glucosamine-6-phosphate [3] = variants of: B1; assay: self-cleavage kobs at 2500 uM GlcN6P; higher = faster cleavage; RNA array
Procedure, shortened: as §1

glucosamine-6-phosphate [4] = variants of: B1; assay: self-cleavage kobs at 10000 uM GlcN6P; higher = faster cleavage; RNA array
Procedure, shortened: as §1

Variant | self-cleavage kobs at 160 uM GlcN6P (glucosamine-6-phosphate [1]) | self-cleavage kobs at 640 uM GlcN6P (glucosamine-6-phosphate [2]) | self-cleavage kobs at 2500 uM GlcN6P (glucosamine-6-phosphate [3]) | self-cleavage kobs at 10000 uM GlcN6P (glucosamine-6-phosphate [4])
AUAAAAGCGCCAGACCUACAGAAAUGUAGAUGACGAGGAGGAGGUUUAUCGAAUUUUCGGCGGAUGCCUCCAAA [A15C U30A] | 0.000667 ± 0.00019 s⁻¹ | 0.00307 ± 0.00075 s⁻¹ | 0.0188 ± 0.0047 s⁻¹ | 0.0299 ± 0.015 s⁻¹
AUAAAAGCGCCAGAACUACAGAAAUGUAGUUGACGAGGAGGACGUUUAUCGAAUGUUCGGCGGAUGCCUCCAAA [G43C U55G] | < 1e-05 s⁻¹ |  |  | 
AUAAAAGCGACAGUACUACAGAAAUGUAGUUGACGAGGAGGAGGUUUAUCGUAUUUUCGGCGGAUGCCUGCAAA [C10A A14U A52U C70G] | 0.00038 ± 0.00011 s⁻¹ | 0.000294 ± 7.4e-05 s⁻¹ | 8.93e-05 ± 3.8e-05 s⁻¹ | 
AUAAACGCGCCAGGACUACAGAAAUGUACUUGACGAGGCGGAGGUUUAUCGAAAUUUCGGCGGAUGCCUCCAAA [A6C A14G G29C A39C U54A] | < 1e-05 s⁻¹ | < 1e-05 s⁻¹ |  | 
AUAAAAGUGCCAGAACUACAGAAAUGUAGUUGACUAGGAGGAGGUUUAUCGAAUUUUCGGCCGAUGCCUCCAAA [C8U G35U G62C] | < 1e-05 s⁻¹ | < 1e-05 s⁻¹ | < 1e-05 s⁻¹ | 
AUAAAAGUGCCAGAACUACAGAAAUGUAGUGGACGAGGAGGAGUUUUAUCGAAUUUUCGGCGGAUGCCUCGAAA [C8U U31G G44U C71G] | < 1e-05 s⁻¹ | < 1e-05 s⁻¹ |  | 
ACAAAAGCGCCAGAAGUACAGAAAUGUAGUUGACGAGGAGGAGGUUUAUCGACUUUUCGGCGGAUGCCUCCAAA [U2C C16G A53C] | 4.66e-05 ± 1.6e-05 s⁻¹ | 0.000137 ± 1.9e-05 s⁻¹ | 0.000285 ± 4.6e-05 s⁻¹ | 
AUAAAAGCGCCAGAACUACAGAAAUGUAGUUGACGAGGAGGAGGUUUAUCGACUUUUCGGCGAAUGCCUCCAAA [A53C G63A] | < 1e-05 s⁻¹ | < 1e-05 s⁻¹ |  | < 1e-05 s⁻¹
AUAAAAGCGCCAGAACUACAGAAAUGUAGUUGACCUGGAGGAGGUUUAUCGAAUUUUCGGCGGAUGCCUCCAAA [G35C A36U] | < 1e-05 s⁻¹ | < 1e-05 s⁻¹ | < 1e-05 s⁻¹ | < 1e-05 s⁻¹
AUAAAAGCGCCAUAACUACAGAAAUGUAGUUGAGGAGGAGGAGGUUUAUCGAAUUUUCGGCGGAUGCCUCCAAA [G13U C34G] | < 1e-05 s⁻¹ | < 1e-05 s⁻¹ | < 1e-05 s⁻¹ | < 1e-05 s⁻¹
AUAAAAGCGCCAGAACUACAGAAAUGUAGUUGACGAGGAGGCGGUUUAUCGAAUUUUAGGCGGAUGCCUCCAAA [A42C C58A] | < 1e-05 s⁻¹ | < 1e-05 s⁻¹ |  | < 1e-05 s⁻¹
AUAAAAGCGCCAGAACUACAGAAAUGUAGUUGACCAGGAGGAGGUUUAUCGAAUUUUCGGCGGACACCUCCAAA [G35C U65C G66A] | < 1e-05 s⁻¹ | < 1e-05 s⁻¹ | < 1e-05 s⁻¹ | 
AUAAAAGCGCCAGAACUACAGAAAUGUAGUUGAUGAGGAGGAGGUUUAUCGAAAUUUCGGCGGAUGCCGCCAAA [C34U U54A U69G] | 0.000126 ± 4.6e-05 s⁻¹ | 0.000598 ± 0.0002 s⁻¹ | 0.000128 ± 4.7e-05 s⁻¹ | 0.000125 ± 3.4e-05 s⁻¹
AUAAAAGCGUUAAAACUACAGAAAUGUAGUUGACGAGGAGGAGGUUUAUCGAAUUUUCGGCGGAUGCCUCCAAA [C10U C11U G13A] | < 1e-05 s⁻¹ | < 1e-05 s⁻¹ | < 1e-05 s⁻¹ | 
AUAAAAGCGCGAGAACUACAGAAAUGUAGUUGACGAGGAGGAGGUUUAUCGAAUUUUCGGCGUAUGCCUCCAAA [C11G G63U] | < 1e-05 s⁻¹ |  | < 1e-05 s⁻¹ | < 1e-05 s⁻¹
AUAAAAGCGCCAGAACUACAGAAAUGUAGUUGACGAGGAGGAGUUUUAUCGAAUUUUCAACGGAUGCCUCCAAA [G44U G59A G60A] | < 1e-05 s⁻¹ | < 1e-05 s⁻¹ | < 1e-05 s⁻¹ | 
AUAAAAGCGCCAUAACUACAGAAAUGUAGUUGACGAGGAGUAGGUUUAUCGAAUUUUCGGGGGAUGCCUCGAAA [G13U G41U C61G C71G] | < 1e-05 s⁻¹ | < 1e-05 s⁻¹ | < 1e-05 s⁻¹ | 
AUAAAAGCGCCAUAACUACAGAAAUGUAAUUGACGAGGAGGAGGUUUAUCGAAUUUUCGGCGGAUCCCUCCAAA [G13U G29A G66C] | < 1e-05 s⁻¹ |  |  | 
AUAAAAUCGCCAGAACUACAGAAAUGUAGGUGAGGAGGAGGAGGUUUAUCGAAUUUUCGGCGGAUGCCUCCAAA [G7U U30G C34G] | < 1e-05 s⁻¹ |  | < 1e-05 s⁻¹ | < 1e-05 s⁻¹
AUAAAAGCGCCAGAACUACAGAAAUGUAGUGGACGAGGAGGAGGCUUAUCGAAUUUUCGGCGGAUGGCUCCAAA [U31G U45C C67G] | 0.000177 ± 7.3e-05 s⁻¹ |  | 0.00223 ± 0.0006 s⁻¹ | 
AUAAAAGCGCCAAAACUACAGAAAUGUAGUUGACUAGGAGGAGGUUUAUCGAAUUUUCGGCGGAUUGCUCCAAA [G13A G35U G66U C67G] | < 1e-05 s⁻¹ |  | < 1e-05 s⁻¹ | 
AUAAAAGAGCCAGAACUACAGAAAUGUAGUUGACGAGGAGGUGGUUUAUCGAAUUUUCGGCGGAUGCCUCCAAA [C8A A42U] | < 1e-05 s⁻¹ | < 1e-05 s⁻¹ |  | 
AUAAAAGAGUCAGAACUACAGAAAUGUAGUAGACGAGGAGGAGGUUUAUCGAAUUUUCGGCGGAUGCCUCCAAA [C8A C10U U31A] | < 1e-05 s⁻¹ |  |  | < 1e-05 s⁻¹
AUAAAAGCGCCAGAACUACAGAAAUGUAGUUGAAGAGGAGGAGGUUUACCGAAUUUUCGGCGGAUGCCUCCAAA [C34A U49C] | < 1e-05 s⁻¹ | < 1e-05 s⁻¹ | < 1e-05 s⁻¹ | < 1e-05 s⁻¹
AUAAAAGCGCCAGAACUACAGAAAUGUAGUUGACGAGCAGCAGGUUUAUCGAAUUUUCGGCGGAUGCCUCCAAA [G38C G41C] | < 1e-05 s⁻¹ | < 1e-05 s⁻¹ | < 1e-05 s⁻¹ | 
AUAAAAGCGCCAGAACUACAGAAAUGUAGCUGACGAGGAGGACGUUUAUCGAAUUUUCGGCGGAUGCGUCCAAA [U30C G43C C68G] | 7.51e-05 ± 2.2e-05 s⁻¹ |  |  | 
AUAAAAGCGCCAGGACUACAGAAAUGUAGUUGACGAGGAGGAGGUUUAACGAAUUAUCGGCAGAUGCCUCUAAA [A14G U49A U56A G62A C71U] | < 1e-05 s⁻¹ |  |  | 
AUAAAAGCGCCCGAACUACAGAAAUGUAGUUGACGAGGAGGAGGUUUAUCGAAUUAUCGGCGGAUGACGCCAAA [A12C U56A C67A U69G] | 8.14e-05 ± 2.1e-05 s⁻¹ | 0.00447 ± 0.0018 s⁻¹ | 0.000144 ± 4.7e-05 s⁻¹ | 

Source: the supplement of paper PMC7125110
